Experimental data as given in patent US20230212319A1, “NOVEL ANTIGEN BINDING DOMAINS AND SYNTHETIC ANTIGEN RECEPTORS INCORPORATING THE SAME” (University of Southern California, priority 2020, published 2023).
Where a chain is given by its changes, count along the chain named.

B1: 22151 (protein)
chain: MALPVTALLLPLALLLHAARPMLPAPKNLVVSRITEDSARLSWTAPDAAFDSFPIRYIETLIWGEAIWLDVPGSERSYDLTGLKPGTEYAVVITGVKGGRFSSPLVASFTTGTGGGGSGGGGSGGGGSEFSYVLTQPPSVSVAPGQTARITCGGNNIGGKSVHWYQQPPGQAPVVVVYDDSDRPSGIPERFSGSNSGNTATLTISRVEAGDEAVYYCQVWDSSSDHVVFGGGTKLTVLLEDLKNVFPPEVAVFEPSEAEISHTQKATLVCLATGFYPDHVELSWWVNGKEVHSGVCTDPQPLKEQPALNDSRYCLSSRLRVSATFWQNPRNHFRCQVQFYGLSENDEWTQDRAKPVTQIVSAEAWGRADCGFTSESYQQGVLSATILYEILLGKATLYAVLVSALVLMAMVKRKDSRGRAKRSGSGATNFSLLKQAGDVEENPGPTSMDWIWRILFLVGAATGAHSFEQLQLQESGPGLVKPSETLSLTCTVSGGSISSSSYFWGWIRQPPGKGLEWIGSIYYSGITYYNPSLKSRVTISVDTSKNQFSLKLSSVTAADTAVYYCARHDGAVAGLFDYWGQGTLVTVSSATRIQNPDPAVYQLRDSKSSDKSVCLFTDFDSQTNVSQSKDSDVYITDKCVLDMRSMDFKSNSAVAWSNKSDFACANAFNNSIIPEDTFFPSPESSCDVKLVEKSFETDTNLNFQNLSVIGFRILLLKVAGFNLLMTLRLWSSRAKRSGSGVKQTLNFDLLKLAGDVESNPGPSRGHMTEYKPTVRLATRDDVPRAVRTLAAAFADYPATRHTVDPDRHIERVTELQELFLTRVGLDIGKVWVADDGAAVAVWTTPESVEAGAVFAEIGPRMAELSGSRLAAQQQMEGLLAPHRPKEPAWFLATVGVSPDHQGKGLGSAVVLPGVEAAERAGVPAFLETSAPRNLPFYERLGFTVTADVEVPEGPRTWCMTRKPGA
B2: 22150 (protein)
chain: MALPVTALLLPLALLLHAARPACEVQLLESGGGLIQPGGSLRLSCAASGFTFSSHAMTWVRQAPGKGLEWVSAISGSGDYTHYADSVKGRFTISRDNSKNTVYLQMNSLRAEDSAVYYCAKDEDGGSLLGHRGQGTLVTVSSGTGGGGSGGGGSGGGGSEFDVVMTQSPSSLSASVGDRVTITCMASEDIYIRLAWYQQKPGNAPKLLIYAATSLETGVPSRFSGSGSGTDFTLTISSLQPEDFATYYCQQYWSSPWTFGGGTKVEIKLEADVSPKPTIFLPSIAETKLQKAGTYLCLLEKFFPDVIKIHWQEKKSNTILGSQEGNTMKTNDTYMKFSWLTVPEKSLDKEHRCIVRHENNKNGVDQEIIFPPIKTDVITMDPKDNCSKDANDTLLLQLTNTSAYYMYLLLLLKSVVYFAIITCCLLRRTAFCCNGEKSRAKRSGSGATNFSLLKQAGDVEENPGPTSMDWIWRILFLVGAATGAHSGPQVQLQESGGGLAQAGGSLRLSCAASGRTFSMGWFRQAPGKEREFVAAITYSGGSPYYASSVRGRFTISRDNAKNTVYLQMNSLKPEDTAVYYCAANPTYGSDWNAENWGQGTQVTVSSGSGGGGSGGGGSGGGGSFEQVQLQESGPGLVKPSQTLSLTCTVSGYSITSDYTWNWIRQPPGNGLEWIGYITYSGSTSYNPSLKSRVLISVDTSKNQVSLKLSSVTAADTAVYYCARLGRRYTMDYWGQGTTVTVSSTRPHTKPSVFVMKNGTNVACLVKEFYPKDIRINLVSSKKITEFDPAIVISPSGKYNAVKLGKYEDSNSVTCSVQHDNKTVHSTDFEVKTDSTDHVKPKETENTKQPSKSCHKPKAIVHTEKVNMMSLTVLGLRMLFAKTVAVNFLLTAKLFFLRAKRSGSGVKQTLNFDLLKLAGDVESNPGPSRGHMTEYKPTVRLATRDDVPRAVRTLAAAFADYPATRHTVDPDRHIERVTELQELFLTRVGLDIGKVWVADDGAAVAVWTTPESVEAGAVFAEIGPRMAELSGSRLAAQQQMEGLLAPHRPKEPAWFLATVGVSPDHQGKGLGSAVVLPGVEAAERAGVPAFLETSAPRNLPFYERLGFTVTADVEVPEGPRTWCMTRKPGA
B3: 10522 (protein)
chain: MALPVTALLLPLALLLHAARPDIQMTQSPSSLSASVGDRVTITCRASQDISNYLNWYQQKPGKAPKLLIYYTSRLHSGVPSRFSGSGSGTDFTLTISSLQPEDFATYYCQQGNTLPYTFGQGTKVEIKRLEDLKNVFPPEVAVFEPSEAEISHTQKATLVCLATGFYPDHVELSWWVNGKEVHSGVCTDPQPLKEQPALNDSRYCLSSRLRVSATFWQNPRNHFRCQVQFYGLSENDEWTQDRAKPVTQIVSAEAWGRADCGFTSESYQQGVLSATILYEILLGKATLYAVLVSALVLMAMVKRKDSRGRAKRSGSGATNFSLLKQAGDVEENPGPTSMDWIWRILFLVGAATGAHSFEEVQLVESGGGLVQPGGSLRLSCAASGYTFSDYFMSWVRQAPGKGLEWVATISNGGTYTYYPDSVKGRFTISRDNSKNTLYLQMNSLRAEDTAVYYCARFDGYIFDYWGQGTLVTVSSTRIQNPDPAVYQLRDSKSSDKSVCLFTDFDSQTNVSQSKDSDVYITDKCVLDMRSMDFKSNSAVAWSNKSDFACANAFNNSIIPEDTFFPSPESSCDVKLVEKSFETDTNLNFQNLSVIGFRILLLKVAGFNLLMTLRLWSS
modifications: Synthetic Polynucloetide
B4: 10591 (protein)
chain: B3 chain with N52S, Y386F
modifications: Synthetic Polynucloetide
B5: 10660 (protein)
chain: B3 chain with Y117W, Y386F
modifications: Synthetic Polynucloetide
B6: 10453 (protein)
chain: MALPVTALLLPLALLLHAARPEVQLVESGGGLVQPGGSLRLSCAASGYTFTTYWMHWVRQAPGKGLEWVGYIRPSTGYTEYNQKFKDRFTISADTSKNTAYLQMNSLRAEDTAVYYCARSRWLLDYWGQGTLVTVSLEDLKNVFPPEVAVFEPSEAEISHTQKATLVCLATGFYPDHVELSWWVNGKEVHSGVCTDPQPLKEQPALNDSRYCLSSRLRVSATFWQNPRNHFRCQVQFYGLSENDEWTQDRAKPVTQIVSAEAWGRADCGFTSESYQQGVLSATILYEILLGKATLYAVLVSALVLMAMVKRKDSRGRAKRSGSGATNFSLLKQAGDVEENPGPTSMDWIWRILFLVGAATGAHSFEDIQMTQSPSSLSASVGDRVTITCKSSQSLLYSSNQKNYLAWFQQKPGKAPKLLIYWASTRESGVPSRFSGSGSGTDFTLTISSLQPEDFATYFCHQYLSSYTFGQGTKVEIKRTRIQNPDPAVYQLRDSKSSDKSVCLFTDFDSQTNVSQSKDSDVYITDKCVLDMRSMDFKSNSAVAWSNKSDFACANAFNNSIIPEDTFFPSPESSCDVKLVEKSFETDTNLNFQNLSVIGFRILLLKVAGFNLLMTLRLWSS
modifications: Synthetic Polynucloetide
B7: 10380 (protein)
chain: MALPVTALLLPLALLLHAARPEVQLVESGGGLVQPGGSLRLSCAASGFTFTTYWMHWVRQAPGKGLEWVGYIRPSTGYTEYNQKFKDRFTISADTSKNTAYLQMNSLRAEDTAVYYCARSRWLLDYWGQGTLVTVSGGGGSGGGGSGGGGSDIQMTQSPSSLSASVGDRVTITCKSSQSVLYSSNQKNYLAWFQQKPGKAPKLLIYWASTRESGVPSRFSGSGSGTDFTLTISSLQPEDFATYFCHQYLSSYTFGQGTKVEIKRTREQKLISEEDLAKPTTTPAPRPPTPAPTIASQPLSLRPEACRPAAGGAVHTRGLDFACDIYIWAPLAGTCGVLLLSLVITLYCKRGRKKLLYIFKQPFMRPVQTTQEEDGCSCRFPEEEEGGCELRVKFSRSADAPAYQQGQNQLYNELNLGRREEYDVLDKRRGRDPEMGGKPRRKNPQEGLYNELQKDKMAEAYSEIGMKGERRRGKGHDGLYQGLSTATKDTYDALHMQALPPR
modifications: Synthetic Polynucloetide
B8: 10311 (protein)
chain: MALPVTALLLPLALLLHAARPEVQLVESGGGLVQPGGSLRLSCAASGYTFTSYWLHWVRQAPGKGLEWVGYIRPSTGYTEYNQKFKDRFTISADTSKNTAYLQMNSLRAEDTAVYYCARSRWLLDYWGQGTLVTVSSGGGGSGGGGSGGGGSDIQMTQSPSSLSASVGDRVTITCKSSQSLLYSSNQKNYLAWFQQKPGKAPKLLIYWASTRESGVPSRFSGSGSGTDFTLTISSLQPEDFATYFCHQYLSSYTFGQGTKVEIKRTREQKLISEEDLAKPTTTPAPRPPTPAPTIASQPLSLRPEACRPAAGGAVHTRGLDFACDIYIWAPLAGTCGVLLLSLVITLYCKRGRKKLLYIFKQPFMRPVQTTQEEDGCSCRFPEEEEGGCELRVKFSRSADAPAYQQGQNQLYNELNLGRREEYDVLDKRRGRDPEMGGKPRRKNPQEGLYNELQKDKMAEAYSEIGMKGERRRGKGHDGLYQGLSTATKDTYDALHMQALPPR
modifications: Synthetic Polynucloetide

Assays:
[1] = tested on: L363 cells; assay: JNG assay, co-culture with L363 cells; type: cell-based; conditions: co-culture with L363
Method in brief: (§1)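 Jurkat NFAT-GFP (JNG) cells stably transduced with SARs by lentivirus, with drug selection where the construct carried a resistance gene, then co-cultured with target cells at E:T ~1:2 for ~4–18 h. % GFP-positive cells measured by FACS against parental JNG; +/- to 5+ correspond to ~5–50% GFP-positive.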

[2] = tested on: U266 cells; assay: JNG NFAT-GFP induction on co-culture with U266; type: cell-based
[3] = tested on: RAJI cells; assay: JNG assay, co-culture with RAJI cells; type: cell-based; conditions: JNG cells expressing construct, co-culture with Raji
Method in brief: as §1

[4] = tested on: SKOV3-Luc cells; assay: SKOV3 xenograft in NSG mice; conditions: for tumor inhibition / protection, SKOV3 xenograft: 1 × 10^6 SKOV3-Luc s.c., a week later 3 × 10^6 SAR-T i.v.; for survival, SKOV3 xenograft: mouse, in vivo

Molecule | NFAT-GFP ASSAY: L363 [1] | NFAT-GFP ASSAY: U266 [2] | NFAT-GFP ASSAY: Raji [3] | tumor inhibition / protection, SKOV3 xenograft [4] | survival, SKOV3 xenograft [4]
B1 | 2+ (refer to approximately 5%, 10%, 20%, 30%, 40% and 50% GFP positive cells) | 4+ (refer to approximately 5%, 10%, 20%, 30%, 40% and 50% GFP positive cells) | – | – | –
B2 | +/- (refer to approximately 5%, 10%, 20%, 30%, 40% and 50% GFP positive cells) | + (refer to approximately 5%, 10%, 20%, 30%, 40% and 50% GFP positive cells) | + (refer to approximately 5%, 10%, 20%, 30%, 40% and 50% GFP positive cells) | – | –
B3 | – | – | – | tumor inhibition | improvement in survival
B4 | – | – | – | tumor inhibition | improvement in survival
B5 | – | – | – | tumor inhibition | improvement in survival
B6 | – | – | – | tumor inhibition | improvement in survival
B7 | – | – | – | weak protection | –
B8 | – | – | – | weak protection | –
